Source: publication PMC5630700 (Frontiers in Immunology, 2017)

Target: MARV Musoke NP tagged with FLAG at the N-terminus and His6 at the C-terminus (Wt) (Marburg virus Musoke-80, UniProt P27588)
Assay: far-Western, overlay or dot blot
Conditions: one partner purified

Sequence of MARV Musoke NP tagged with FLAG at the N-terminus and His6 at the C-terminus (Wt) (P27588 whole entry): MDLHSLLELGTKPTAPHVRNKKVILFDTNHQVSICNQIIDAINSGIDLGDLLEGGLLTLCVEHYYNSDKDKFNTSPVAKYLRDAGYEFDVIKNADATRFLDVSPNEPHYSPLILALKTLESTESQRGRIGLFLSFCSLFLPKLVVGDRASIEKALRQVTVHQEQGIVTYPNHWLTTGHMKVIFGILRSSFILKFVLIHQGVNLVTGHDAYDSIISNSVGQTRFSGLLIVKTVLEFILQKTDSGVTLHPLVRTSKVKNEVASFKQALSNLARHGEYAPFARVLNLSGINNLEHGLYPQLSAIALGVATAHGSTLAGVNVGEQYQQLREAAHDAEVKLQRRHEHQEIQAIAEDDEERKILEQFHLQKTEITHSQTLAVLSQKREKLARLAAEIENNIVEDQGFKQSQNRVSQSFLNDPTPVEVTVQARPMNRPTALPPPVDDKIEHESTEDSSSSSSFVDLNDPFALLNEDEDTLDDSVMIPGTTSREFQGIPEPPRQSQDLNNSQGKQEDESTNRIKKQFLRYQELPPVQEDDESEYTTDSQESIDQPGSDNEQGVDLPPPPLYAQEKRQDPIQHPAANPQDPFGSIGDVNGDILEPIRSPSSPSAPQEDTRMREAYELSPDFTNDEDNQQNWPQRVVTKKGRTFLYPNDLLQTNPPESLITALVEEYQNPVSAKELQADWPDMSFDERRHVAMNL

B1: sdAb D–alkaline phosphatase fusion protein (pecan16) (VHH)
VHH: KVKLQESGGGTVQAGGSLRLSCKASGFTFRSSAMGWYRRAPGQHRIFVGSFSRNEFKYADFAQGRFTISRDNAKNTVSLQMNHVIPEDTAVYYCHEDPYGMESLRYWGQGTQVTVSS
**Q.** Does B1 bind?
**A.** binds
